Laboratory results: patent publication US6899879

Target: human CD40 antigen on the surface of human B cells (human) (UniProt P25942)
Assay: cell-based or functional assay

Chain of UniProt P25942 (P25942 21-277): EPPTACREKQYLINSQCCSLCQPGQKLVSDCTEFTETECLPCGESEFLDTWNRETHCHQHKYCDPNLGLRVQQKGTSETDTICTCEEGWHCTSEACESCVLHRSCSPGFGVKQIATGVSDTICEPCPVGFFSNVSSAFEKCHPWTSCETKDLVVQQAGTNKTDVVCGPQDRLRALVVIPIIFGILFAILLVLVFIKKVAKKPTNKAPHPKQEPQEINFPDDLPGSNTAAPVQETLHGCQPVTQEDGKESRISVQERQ

What does the source list for anti-CD40 monoclonal antibody 5D12?
50% of maximal inhibition of human T-cell induced immunoglobulin production by human B cells: 30 ng/mL; concentration giving complete inhibition of EL4B5-induced human B-cell proliferation: 10 ng/mL; half-maximal inhibition of EL4B5-induced human B-cell proliferation: 1 ng/mL; percentage of inhibition of immunoglobulin production by human B cells: 40 to 70%
